{
  "source": "paper PMC9270183",
  "about": "(The Journal of Experimental Medicine, 2022)",
  "key": {"[1]": {"target": "T1, SARS-CoV-2 Wuhan-Hu-1 RBD (SARS-CoV-2 Wuhan-Hu-1, UniProt P0DTC2)", "assay": "BLI", "conditions": "both partners purified"}, "[2]": {"target": "T1, SARS-CoV-2 Wuhan-Hu-1 RBD", "assay": "ELISA", "conditions": "both partners purified"}},
  "data": [
    {"binder": "V052 (antibody, V domains shown, IgG; donor BRA15) VH: EVQLVESGGGLVQPGGSLRLSCAASGFTVSSKYMNWVRQAPGKGLEWVSVIYIGGSTDYADSVKGRFTISRDNSKNTLYLQMNSLRVEDTAVYYCARDGWDYELVFWGQGTLVTVSS VL: DIQMTQSPSSLSASVGDRVTITCRASQGIRNDLGWYQQKPGKAPKRLIYAASSLQSGVPSRFSGSGSGTEFTLTISSLQPEDFATYYCLQHNSYPRWTFGQGTKVEIK", "values": [
      {"measurement": "binding result", "setting": "[1]", "result": "no binding (tested: 100 µg/ml RBD)"}
    ]},
    {"binder": "V021 (antibody, V domains shown, IgG; donor BRA13) VH: QVQLQESGPGLVKPSQTLSLTCTVSGGSISSGSYYWSWIRQPVGKGLEWIGRIYTSGSTNYNPSLKSRVTISVDTSKNQFSLELSSVTAADRAVYYCARESSPASIPVRGVIWWFDPWGQGTLVTVSS VL: not shown", "values": [
      {"measurement": "binding result", "setting": "[2]", "result": "no binding"}
    ]},
    {"binder": "V065 (antibody, V domains shown, IgG; donor BRA15) VH: QVQLVQSGAEVKKPGASVKVSCKASGYTFTSYGISWVRQAPGQGLEWMGWINTDNGNTKNAQKVQGRVTMTTDTSTSTAYMELRSLRSDDTAVYYCARGGTVGAPPIEYWGQGTLVTVSS VL: QSALTQPASVSGSPGQSITFSCTGTSSDVGGYNYVSWYQQYPGKAPKLLIYDVTNRPSGVSDRFSGSKSGNTASLTIFGLQAEDEADYYCSSFTSSNTRVFGTGTKVTVL", "values": [
      {"measurement": "binding result", "setting": "[1]", "result": "no binding (tested: 100 µg/ml RBD)"}
    ]}
  ]
}
